# Data reported in patent EP1615032A1 (Kido, Hiroshi, dated 2006).
# Molecular target: T1, purified mouse VDAC protein (mouse, UniProt Q3U6K8 2-283)
# T1 construct: Used as a 100 ng/ml solution over dot-blotted ligands; also called voltage-dependent anion channel
# Assay: dot blot on nitrocellulose; bound VDAC detected with anti-VDAC antibody and ECL
binder,measurement,value
"human microplasmin (enzyme, UniProt P00747 550-810, looked up, 50 ng dot blotted onto a nitrocellulose membrane; also called microplasmin having no Kringle domain) KLYDYCDVPQCAAPSFDCGKPQVEPKKCPGRVVGGCVAHPHSWPWQVSLRTRFGMHFCGGTLISPEWVLTAAHCLEKSPRPSSYKVILGAHQEVNLEPHVQEIEVSRLFLEPTRKDIALLKLSSPAVITDKVIPACLPSPNYVVADRTECFITGWGETQGTFGAGLLKEAQLPVIENKVCNRYEFLNGRVQSTELCAGHLAGGTDSCQGDSGGPLVCFEKDKYILQGVTSWGLGCARPNKPGVYVRVSRFVTWIEGVMRNN",binding result,no binding
